In assay [1] the target is T1, GnT-I (Homo sapiens, UniProt P26572).
T1 construct: Ig kappa chain secretory signal (N); made in house; host or cells: HEK293T (transient, secreted into serum-free medium)
T1 sequence (P26572 39-445 limits assumed): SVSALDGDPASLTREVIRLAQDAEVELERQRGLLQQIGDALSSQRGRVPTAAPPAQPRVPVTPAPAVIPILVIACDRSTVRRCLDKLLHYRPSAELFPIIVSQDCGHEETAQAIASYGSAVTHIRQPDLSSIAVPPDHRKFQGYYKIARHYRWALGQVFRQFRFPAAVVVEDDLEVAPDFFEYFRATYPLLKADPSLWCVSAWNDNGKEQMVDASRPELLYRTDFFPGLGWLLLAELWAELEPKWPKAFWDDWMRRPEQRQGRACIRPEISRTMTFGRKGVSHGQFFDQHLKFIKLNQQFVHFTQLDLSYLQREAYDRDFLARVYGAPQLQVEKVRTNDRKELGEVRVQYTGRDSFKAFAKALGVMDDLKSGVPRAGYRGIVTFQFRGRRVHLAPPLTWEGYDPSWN
Nature of the assay: GnT-I activity assay of solubilized enzymes. The class given is biochemical. The note with it: method of Reference Example 2. How it is done: The activity of GnT-1 was assayed with a method by Yoshida et al. [Yoshida, S., Suzuki, M., Yamano, S., Takeuchi, M., Ikenaga, H., Kioka, N., Sakai, H., and Komano, T., Glycobiology, (1999), 9, 53–58] as described below. A 20 μl reaction solution was prepared by adding an enzyme source thereto so as to have a final concentration of 100 mM MES (pH 6.0), 20 mM MnCl2, 5 μM Manα1–6(Manα1–3)Manα1–6(Manα1–3)Manβ1–4GlcNAcβ1–4GlcNAc-PA(M5GN2-PA; Takara Shuzo, PA-Sugar Chain 017), 1 mM UDP-GlcNAc, 100 mM GlcNAc, 5 mM AMP, 1% Triton X-100, and 0.2% BSA. The reaction solution was incubated at 37° C. for 1 hour, and the reaction was terminated in boiling water. Thereafter, the reaction solution was analyzed by a reverse phase HPLC (Cosmosil 5C18-AR column) available from Nacalai Tesque.
When Manα1–6(Manα1–3)Manβ1–4GlcNAcβ1–4GlcNAc-PA (M3GN2-PA; Takara Shuzo, PA-Sugar Chain 016) was used as a sugar receptor, the same method was employed for analysis.

The subject of assay [2] is OMGnT. Nature of the assay: OMGnT activity in serum-free medium of HEK293T cells expressing solubilized enzymes. The class given is biochemical, human. As to conditions: serum-free medium of HEK293T transfectants. How it is done:
The enzyme solution was added to 140 mM MES [2-(N-morpholino) ethanesulfonic acid] buffer (pH 7.0) containing 0.4 mM Man-peptide, 0.2 mM UDP-[^3H]GlcNAc (up to 228,000 dpm/nmol), 10 mM MnCl2, 5 mM AMP, 200 mM GlcNAc, 2%(w/v) Triton X-100, 10% glycerol, 2 μg/ml antipain, 2 μg/ml chymostatin, 3 μg/ml pepstatin A, 2 μg/ml leupeptin, 1 mM benzamidine-HCl, and 1 mM PMSF (phenylmethylsulfonyl fluoride) to prepare 50 μl of reaction solution. After the reaction at 37° C. for 3 hours, the reaction was terminated by 3 minutes of boiling. The reaction mixture was then filtered with a filter Ultrafree-MC (Millipore) having a pore size of 0.22 μm to remove solids, and analyzed by Wakopak 5C18-200 column (4.6×250 mm, Wako Pure Chemical Industries, Ltd.). The separation was carried out using concentration gradient with Solution A and Solution B at a flow rate of 1.0 ml/min. […] Peptide detection was carried out at 214 nm, and the radioactivity of each fraction was assayed using a liquid scintillation counter.
Each secretory expression plasmid was transiently expressed in a HEK293T cell derived from human embryonic kidney. Usually, HEK293T cells were cultured in D-MEM (Gibco, #11995-065) containing 10% Fetal Calf Serum (Hyclone), 10 mM MEM Non-Essential Amino Acids solution (Gibco), 2 mM Glutamine (Gibco), and 100 units/ml Penicillin/100 μg/ml Streptomycin (Gibco). In a 6-well plate, 2 μg of plasmid was transfected into 50 to 70% confluent cells by calcium phosphate method. After overnight cultivation, the medium exchange was performed and the cultivation was continued for 48 hours [Pear, W. S., Nolan, G. P., Scott, M. L. and Baltimore, D., Proc. Natl. Acad. Sci. USA, (1993), 90, 8392–8396]. Further, the medium was exchanged with a serum-free medium, and after 48-hour cultivation, the supernatant was collected.
According to the method described in Example 1, OMGnT activity in the serum-free medium was assayed.

Consider two molecules from patent publication US7217548B2, “N-acetylglucosaminlytransferase and polynucleotide encoding the same” (National Institute of Advanced Industrial Science and …, priority 2000, dated 2007).

B1: His-Xpress-sGnT-I: control: solubilized human GnT-I enzyme, 407 amino acids from 39:Ser (protein)
chain: SVSALDGDPASLTREVIRLAQDAEVELERQRGLLQQIGDALSSQRGRVPTAAPPAQPRVPVTPAPAVIPILVIACDRSTVRRCLDKLLHYRPSAELFPIIVSQDCGHEETAQAIASYGSAVTHIRQPDLSSIAVPPDHRKFQGYYKIARHYRWALGQVFRQFRFPAAVVVEDDLEVAPDFFEYFRATYPLLKADPSLWCVSAWNDNGKEQMVDASRPELLYRTDFFPGLGWLLLAELWAELEPKWPKAFWDDWMRRPEQRQGRACIRPEISRTMTFGRKGVSHGQFFDQHLKFIKLNQQFVHFTQLDLSYLQREAYDRDFLARVYGAPQLQVEKVRTNDRKELGEVRVQYTGRDSFKAFAKALGVMDDLKSGVPRAGYRGIVTFQFRGRRVHLAPPLTWEGYDPSWN
modifications: left off: small tags and cut ends
notes: control: solubilized human GnT-I enzyme, 407 amino acids from 39:Ser
Molecule B1 had a GnT-I activity in assay [1] of 500 pmol/hr/ml medium. Also, in assay [2], the OMGnT activity is 0.4 pmol/hr/mg protein and the “OMGnT activity (in words)” value is “almost no activity”.

B2: His-Xpress-sOMGnT(S): solubilized human OMGnT, 414 amino acids 247:Ser to 660:Thr of SEQ ID NO: 2, secreted from HEK293T; plasmid named in Table 3 (protein, listed as Homo sapiens)
chain: SSAEEAECHWADTELNRRRRRFCSKVEGYGSVCSCKDPTPIEFSPDPLPDNKVLNVPVAVIAGNRPNYLYRMLRSLLSAQGVSPQMITVFIDGYYEEPMDVVALFGLRGIQHTPISIKNARVSQHYKASLTATFNLFPEAKFAVVLEEDLDIAVDFFSFLSQSIHLLEEDDSLYCISAWNDQGYEHTAEDPALLYRVETMPGLGWVLRRSLYKEELEPKWPTPEKLWDWDMWMRMPEQRRGRECIIPDVSRSYHFGIVGLNMNGYFHEAYFKKHKFNTVPGVQLRNVDSLKKEAYEVEVHRLLSEAEVLDHSKNPCEDSFLPDTEGHTYVAFIRMEKDDDFTTWTQLAKCLHIWDLDVRGNHRGLWRLFRKKNHFLVVGVPASPYSVKKPPSVTPIFLEPPPKEEGAPGAPEQT
modifications: His-Xpress tag
B2: the “GnT-I activity (in words)” value in assay [1] is given as “did not exhibit activity at all”. Also, in assay [2], the OMGnT activity is 20 pmol/hr/mg protein and the “OMGnT activity (in words)” value is “significantly high OMGnT activity”.
